Assay results as given in patent US20180066015A1, “INHIBITORS OF GROWTH FACTOR ACTIVATION ENZYMES” (Washington University, published 2018).
Where two headings read alike, the source gives them in different places. Primed or numbered codes have the meaning given here. No end group written: not given here. *: point of attachment. kbt‑6‑CONH‑4‑pyridine = ketobenzothiazole-6-CONH-4-pyridine (Kbt-4-pyridinylamide), O=C(Nc1ccncc1)c1ccc2nc(*)sc2c1; ketothiazole = C-terminal ketothiazole (kt), c1csc(*)n1; Kbt = ketobenzothiazole, c1ccc2sc(*)nc2c1; kt = C-terminal ketothiazole, c1csc(*)n1; kt″ = ketothiazole, c1csc(*)n1

T1: matriptase (Charles Craik, UCSF), recombinant (Homo sapiens (Human), UniProt Q9Y5Y6)
T1 sequence: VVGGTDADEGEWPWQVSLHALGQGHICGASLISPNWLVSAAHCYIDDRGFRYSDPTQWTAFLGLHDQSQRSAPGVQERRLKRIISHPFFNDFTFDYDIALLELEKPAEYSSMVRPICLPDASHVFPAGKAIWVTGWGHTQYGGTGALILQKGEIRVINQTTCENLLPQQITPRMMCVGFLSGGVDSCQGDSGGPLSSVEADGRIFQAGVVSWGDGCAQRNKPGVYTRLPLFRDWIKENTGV

T2: matriptase (Charles Craik, UCSF), recombinant (Homo sapiens (Human)) (UniProt Q9Y5Y6)
T2 sequence: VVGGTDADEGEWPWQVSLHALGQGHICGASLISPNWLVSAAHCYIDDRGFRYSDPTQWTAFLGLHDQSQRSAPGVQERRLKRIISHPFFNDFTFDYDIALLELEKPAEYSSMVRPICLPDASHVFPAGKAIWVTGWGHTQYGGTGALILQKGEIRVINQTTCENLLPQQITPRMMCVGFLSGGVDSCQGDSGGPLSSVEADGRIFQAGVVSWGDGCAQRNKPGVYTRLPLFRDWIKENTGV

B1: Ac-FLFR(SEQ ID NO: 19)-Kbt (peptide)
peptide: Ac-FLFR-Kbt
SMILES: CC(=O)N[C@@H](Cc1ccccc1)C(=O)N[C@@H](CC(C)C)C(=O)N[C@@H](Cc1ccccc1)C(=O)N[C@@H](CCCNC(=N)N)C(=O)c1nc2ccccc2s1
B2: Ac-TKLR(SEQ ID NO: 16)-kt (peptide)
peptide: Ac-TKLR-kt
SMILES: CC(=O)N[C@H](C(=O)N[C@@H](CCCCN)C(=O)N[C@@H](CC(C)C)C(=O)N[C@@H](CCCNC(=N)N)C(=O)c1nccs1)[C@@H](C)O
B3: Ac-KHLR(SEQ ID NO: 2)-kt (peptide)
peptide: Ac-KHLR-{kt″}
SMILES: CC(=O)N[C@@H](CCCCN)C(=O)N[C@@H](Cc1c[nH]cn1)C(=O)N[C@@H](CC(C)C)C(=O)N[C@@H](CCCNC(=N)N)C(=O)c1nccs1
B4: Ac-RKLR(SEQ ID NO: 18)-kt (peptide)
peptide: Ac-RKLR-kt
SMILES: CC(=O)N[C@@H](CCCNC(=N)N)C(=O)N[C@@H](CCCCN)C(=O)N[C@@H](CC(C)C)C(=O)N[C@@H](CCCNC(=N)N)C(=O)c1nccs1
B5: Ac-KRLR(SEQ ID NO: 8)-Kbt (peptide)
peptide: Ac-KRLR-Kbt
SMILES: CC(=O)N[C@@H](CCCCN)C(=O)N[C@@H](CCCNC(=N)N)C(=O)N[C@@H](CC(C)C)C(=O)N[C@@H](CCCNC(=N)N)C(=O)c1nc2ccccc2s1
B6: Ac-KFLR(SEQ ID NO: 5)-kt (peptide)
peptide: Ac-KFLR-ketothiazole
SMILES: CC(=O)N[C@@H](CCCCN)C(=O)N[C@@H](Cc1ccccc1)C(=O)N[C@@H](CC(C)C)C(=O)N[C@@H](CCCNC(=N)N)C(=O)c1nccs1

What was measured:
[1] = target: T1, matriptase (Charles Craik, UCSF), …; assay: fluorogenic inhibition assay
Protocol: (§1) Inhibitors (11-pt serial dilutions, 0-20 μM final concentration in reaction) were serially diluted in DMSO (2% DMSO final concentration) and then mixed with either recombinant serine protease domain of HGFA [Z. Han, P. K. Harris, D. E. Jones, R. Chugani, T. Kim, M. Agarwal, W. Shen, S. A. Wildman, J. W. Janetka, Acs Med Chem Lett 2014, 5, 1219-1224], matriptase (Charles Craik, UCSF) or hepsin* (#4776-SE-010, R&D Systems, Minneapolis, Minn.) in black 384 well plates (Corning #3575. Corning, N.Y.). […] The final substrate concentrations for all assays were at the Kₘ for the respective enzymes. Changes in fluorescence (excitation at 380 nm and emission at 460 nm) were measured at room temperature over time in a Biotek Synergy 2 plate reader (Winnoski, Vt.). Using GraphPad Prism version 6.04 software program, (GraphPad Software, San Diego, Calif., www.graphpad.com), a four parameter curve fit was used to determine the inhibitor IC₅₀s from a plot of the mean reaction velocity versus the inhibitor concentration. The IC₅₀ values represent the average of three separate experimental determinations.
(§2) Fluorescent inhibitor and chromogenic proteolytic assays were performed in general accordance with the procedures described in Example 4 for compounds prepared in Examples 5 and 6.

[2] = target: T3, Recombinant human hepsin (4776-SE-010, R&D Systems), activated (human, UniProt P05981); assay: fluorogenic inhibition assay
Protocol: as §1, §2

Factor Xa = assay: selectivity inhibition assay
Trypsin = assay: selectivity inhibition assay
recombinant thrombin = assay: selectivity inhibition assay
[3] = target: Hepatocyte Growth Factor Activator (HGFA) serine protease domain, N-terminal His-tag, recombinant (Homo sapiens (Human)) (UniProt Q04756); assay: fluorogenic inhibition assay
[4] = target: T2, matriptase (Charles Craik, UCSF), recombinant (Homo sapiens (Human))
[5] = target: Hepatocyte Growth Factor Activator (HGFA) serine protease domain, N-terminal His-tag, recombinant (Homo sapiens (Human)) (UniProt Q04756)
[6] = target: Recombinant human hepsin (4776-SE-010, R&D Systems), activated (human) (UniProt P05981)
[7] = target: T1, matriptase (Charles Craik, UCSF), …; assay: fluorogenic inhibition assay; remark: listed apart in the source
Protocol: as §1

[8] = target: T3, Recombinant human hepsin (4776-SE-010, …); assay: fluorogenic inhibition assay; remark: listed apart in the source
Protocol: as §1

Binder | Ki [1] [nM] | Ki [2] [nM] | Ki (Factor Xa) [nM] | Ki (Trypsin) [nM] | Ki (recombinant thrombin) [nM] | Ki [3] [nM] | IC50 of enzyme inhibition [4] [nM] | IC50 of enzyme inhibition [5] [nM] | IC50 of enzyme inhibition [6] [nM] | Ki [7] [nM] | Ki [8] [nM]
Ac-SKLR-{kbt‑6‑CONH‑4‑pyridine} [Ac-SKLR(SEQ ID NO: 10)-Kbt-4-pyridinylamide] | 3.95 | 0.14 | 221 | 1.06 | 3430 | 31.8 |  |  |  |  | 
Ac-SKLR (not fully specified (C-terminus)) [Ac-SKLR(SEQ ID NO: 10)-Kbt-Phe-NH2] | 6.26 | 0.14 | 544 | 0.27 | 3640 | 17.3 |  |  |  |  | 
LLR (N-terminal acetyl; C-terminus printed as -H) [Leupeptin (Ac-LLR-H)] |  |  |  |  |  | 188 | 1150 | 535 | 256 | 696 | 61
Ac-KRLR-{Kbt-Benzyl‑4‑COOMe} [Ac-KRLR(SEQ ID NO: 8)-kbt-Benzyl-4-COOMe] | 0.98 | 0.26 | 9 | 0.05 | 20.9 | 5.85 |  |  |  |  | 
B1 | 3.6 | 1.44 | 13.1 | 0.27 | > 20000 | 114 |  |  |  |  | 
Ac-KRLR-{Kbt-Benzyl‑3‑COOMe} [Ac-KRLR(SEQ ID NO: 8)-kbt-Benzyl-3-COOMe] | 1.8 | 0.36 | 14 | 0.04 | 85.4 | 7.76 |  |  |  |  | 
Ac-SKLR-{kbt‑6‑CO-Val-NH2} [Ac-SKLR(SEQ ID NO: 10)-Kbt-Val-NH2] | 10.3 | 0.19 | 385 | 0.34 | 4500 | 13 |  |  |  |  | 
B2 |  |  |  |  |  | 103 |  | 567 |  | 8.7 | 0.61
B3 |  |  |  |  |  | 96 |  | 650 |  | 22.3 | 0.41
B4 |  |  |  |  |  | 17 |  | 370 |  | 0.83 | 0.47
B5 | 0.54 | 0.112 | 91.9 | 0.82 | > 20000 | 6 |  |  |  |  | 
Ac-Leu-Leu-Arg-kt [Ac-LLR-kt] |  |  |  |  |  | 253 |  | 1480 |  |  | 2.29
B6 |  |  |  |  |  | 80 | 35 | 330 | 22 |  | 
